In paper PMC2115384 (The Journal of Cell Biology, 1989):

B1: purified human erythrocyte ankyrin (natural protein, UniProt P16157 1-1881, looked up)
chain: MPYSVGFREADAATSFLRAARSGNLDKALDHLRNGVDINTCNQNGLNGLHLASKEGHVKMVVELLHKEIILETTTKKGNTALHIAALAGQDEVVRELVNYGANVNAQSQKGFTPLYMAAQENHLEVVKFLLENGANQNVATEDGFTPLAVALQQGHENVVAHLINYGTKGKVRLPALHIAARNDDTRTAAVLLQNDPNPDVLSKTGFTPLHIAAHYENLNVAQLLLNRGASVNFTPQNGITPLHIASRRGNVIMVRLLLDRGAQIETKTKDELTPLHCAARNGHVRISEILLDHGAPIQAKTKNGLSPIHMAAQGDHLDCVRLLLQYDAEIDDITLDHLTPLHVAAHCGHHRVAKVLLDKGAKPNSRALNGFTPLHIACKKNHVRVMELLLKTGASIDAVTESGLTPLHVASFMGHLPIVKNLLQRGASPNVSNVKVETPLHMAARAGHTEVAKYLLQNKAKVNAKAKDDQTPLHCAARIGHTNMVKLLLENNANPNLATTAGHTPLHIAAREGHVETVLALLEKEASQACMTKKGFTPLHVAAKYGKVRVAELLLERDAHPNAAGKNGLTPLHVAVHHNNLDIVKLLLPRGGSPHSPAWNGYTPLHIAAKQNQVEVARSLLQYGGSANAESVQGVTPLHLAAQEGHAEMVALLLSKQANGNLGNKSGLTPLHLVAQEGHVPVADVLIKHGVMVDATTRMGYTPLHVASHYGNIKLVKFLLQHQADVNAKTKLGYSPLHQAAQQGHTDIVTLLLKNGASPNEVSSDGTTPLAIAKRLGYISVTDVLKVVTDETSFVLVSDKHRMSFPETVDEILDVSEDEGEELISFKAERRDSRDVDEEKELLDFVPKLDQVVESPAIPRIPCAMPETVVIRSEEQEQASKEYDEDSLIPSSPATETSDNISPVASPVHTGFLVSFMVDARGGSMRGSRHNGLRVVIPPRTCAAPTRITCRLVKPQKLSTPPPLAEEEGLASRIIALGPTGAQFLSPVIVEIPHFASHGRGDRELVVLRSENGSVWKEHRSRYGESYLDQILNGMDEELGSLEELEKKRVCRIITTDFPLYFVIMSRLCQDYDTIGPEGGSLKSKLVPLVQATFPENAVTKRVKLALQAQPVPDELVTKLLGNQATFSPIVTVEPRRRKFHRPIGLRIPLPPSWTDNPRDSGEGDTTSLRLLCSVIGGTDQAQWEDITGTTKLVYANECANFTTNVSARFWLSDCPRTAEAVNFATLLYKELTAVPYMAKFVIFAKMNDPREGRLRCYCMTDDKVDKTLEQHENFVEVARSRDIEVLEGMSLFAELSGNLVPVKKAAQQRSFHFQSFRENRLAMPVKVRDSSREPGGSLSFLRKAMKYEDTQHILCHLNITMPPCAKGSGAEDRRRTPTPLALRYSILSESTPGSLSGTEQAEMKMAVISEHLGLSWAELARELQFSVEDINRIRVENPNSLLEQSVALLNLWVIREGQNANMENLYTALQSIDRGEIVNMLEGSGRQSRNLKPDRRHTDRDYSLSPSQMNGYSSLQDELLSPASLGCALSSPLRADQYWNEVAVLDAIPLAATEHDTMLEMSDMQVWSAGLTPSLVTAEDSSLECSKAEDSDATGHEWKLEGALSEEPRGPELGSLELVEDDTVDSDATNGLIDLLEQEEGQRSEEKLPGSKRQDDATGAGQDSENEVSLVSGHQRGQARITHSPTVSQVTERSQDRLQDWDADGSIVSYLQDAAQGSWQEEVTQGPHSFQGTSTMTEGLEPGGSQEYEKVLVSVSEHTWTEQPEAESSQADRDRRQQGQEEQVQEAKNTFTQVVQGNEFQNIPGEQVTEEQFTDEQGNIVTKKIIRKVVRQIDLSSADAAQEHEEVTVEGPLEDPSELEVDIDYFMKHSKDHTSTPNP

Columns and labels:
Assay in all cases: native gel or EMSA
[1] = molecular target: ankyrin solubilized from MDCK cells (dog (endogenous in MDCK))
[2] = molecular target: fodrin solubilized from MDCK cells (alpha- and beta-subunits) (dog (endogenous in MDCK))
[3] = molecular target: purified human erythrocyte spectrin heterotetramers (human, UniProt P02549 1-2419; P11277 1-2137)
Chain of purified human erythrocyte spectrin heterotetramers (P02549 whole entry, chain 1 of 2): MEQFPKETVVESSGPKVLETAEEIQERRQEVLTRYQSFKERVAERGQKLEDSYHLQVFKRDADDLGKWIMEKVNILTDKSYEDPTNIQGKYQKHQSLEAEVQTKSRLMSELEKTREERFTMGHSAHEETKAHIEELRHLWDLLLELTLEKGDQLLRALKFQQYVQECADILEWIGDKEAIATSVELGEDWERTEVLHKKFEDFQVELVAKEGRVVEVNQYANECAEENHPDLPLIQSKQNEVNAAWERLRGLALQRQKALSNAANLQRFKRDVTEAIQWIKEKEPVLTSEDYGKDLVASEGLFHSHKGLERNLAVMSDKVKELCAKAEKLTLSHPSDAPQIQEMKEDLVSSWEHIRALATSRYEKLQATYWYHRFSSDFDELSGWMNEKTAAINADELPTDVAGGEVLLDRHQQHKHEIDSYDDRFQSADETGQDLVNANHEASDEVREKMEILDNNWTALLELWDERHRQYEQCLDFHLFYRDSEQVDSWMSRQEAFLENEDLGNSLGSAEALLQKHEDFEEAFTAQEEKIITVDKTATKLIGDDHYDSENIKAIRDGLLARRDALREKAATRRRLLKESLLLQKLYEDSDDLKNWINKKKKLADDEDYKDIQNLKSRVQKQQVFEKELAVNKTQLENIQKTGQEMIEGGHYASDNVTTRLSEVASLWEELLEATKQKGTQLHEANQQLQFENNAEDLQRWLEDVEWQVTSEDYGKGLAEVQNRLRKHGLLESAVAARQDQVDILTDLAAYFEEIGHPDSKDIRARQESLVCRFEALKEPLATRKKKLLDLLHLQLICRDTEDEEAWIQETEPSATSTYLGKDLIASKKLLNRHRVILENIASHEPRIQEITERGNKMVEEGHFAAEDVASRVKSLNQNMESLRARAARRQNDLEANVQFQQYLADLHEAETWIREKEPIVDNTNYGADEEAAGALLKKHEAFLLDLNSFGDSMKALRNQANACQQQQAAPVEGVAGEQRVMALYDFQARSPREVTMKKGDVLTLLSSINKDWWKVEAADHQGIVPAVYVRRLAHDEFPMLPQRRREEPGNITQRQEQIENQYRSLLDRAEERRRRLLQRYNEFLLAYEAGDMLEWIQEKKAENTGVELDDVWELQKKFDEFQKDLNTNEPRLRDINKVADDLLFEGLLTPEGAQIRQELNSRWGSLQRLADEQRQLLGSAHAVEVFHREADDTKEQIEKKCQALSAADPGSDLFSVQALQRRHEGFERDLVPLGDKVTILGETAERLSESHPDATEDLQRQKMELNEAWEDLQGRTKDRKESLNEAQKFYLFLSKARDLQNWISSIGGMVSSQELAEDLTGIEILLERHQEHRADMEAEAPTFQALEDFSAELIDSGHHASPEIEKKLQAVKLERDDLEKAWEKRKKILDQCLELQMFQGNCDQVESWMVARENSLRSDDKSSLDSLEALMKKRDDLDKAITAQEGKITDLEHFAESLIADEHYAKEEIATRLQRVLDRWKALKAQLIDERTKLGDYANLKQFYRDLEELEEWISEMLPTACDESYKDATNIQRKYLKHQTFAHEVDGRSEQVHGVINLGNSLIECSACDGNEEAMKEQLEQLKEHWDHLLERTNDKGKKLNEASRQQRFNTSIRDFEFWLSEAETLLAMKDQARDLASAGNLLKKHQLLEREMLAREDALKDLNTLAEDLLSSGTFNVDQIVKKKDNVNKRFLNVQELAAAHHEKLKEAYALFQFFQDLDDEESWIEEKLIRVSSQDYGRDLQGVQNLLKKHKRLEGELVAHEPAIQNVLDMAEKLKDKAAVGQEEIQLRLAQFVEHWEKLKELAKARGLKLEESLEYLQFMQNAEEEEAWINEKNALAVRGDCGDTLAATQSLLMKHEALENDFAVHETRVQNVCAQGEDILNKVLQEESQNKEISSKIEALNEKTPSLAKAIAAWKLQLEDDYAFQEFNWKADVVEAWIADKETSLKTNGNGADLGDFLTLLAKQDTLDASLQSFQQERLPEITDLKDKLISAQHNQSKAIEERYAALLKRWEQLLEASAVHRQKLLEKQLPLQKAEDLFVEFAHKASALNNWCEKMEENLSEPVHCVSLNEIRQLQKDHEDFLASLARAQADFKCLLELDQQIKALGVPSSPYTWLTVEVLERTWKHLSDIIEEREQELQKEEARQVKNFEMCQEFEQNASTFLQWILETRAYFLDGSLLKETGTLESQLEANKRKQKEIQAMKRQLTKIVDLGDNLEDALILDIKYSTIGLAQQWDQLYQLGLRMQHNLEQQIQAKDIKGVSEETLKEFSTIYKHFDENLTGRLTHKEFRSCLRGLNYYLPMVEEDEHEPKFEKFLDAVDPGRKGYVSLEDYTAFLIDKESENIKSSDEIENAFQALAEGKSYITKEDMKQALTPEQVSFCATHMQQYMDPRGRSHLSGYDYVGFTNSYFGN
Chain of purified human erythrocyte spectrin heterotetramers (P11277 whole entry, chain 2 of 2): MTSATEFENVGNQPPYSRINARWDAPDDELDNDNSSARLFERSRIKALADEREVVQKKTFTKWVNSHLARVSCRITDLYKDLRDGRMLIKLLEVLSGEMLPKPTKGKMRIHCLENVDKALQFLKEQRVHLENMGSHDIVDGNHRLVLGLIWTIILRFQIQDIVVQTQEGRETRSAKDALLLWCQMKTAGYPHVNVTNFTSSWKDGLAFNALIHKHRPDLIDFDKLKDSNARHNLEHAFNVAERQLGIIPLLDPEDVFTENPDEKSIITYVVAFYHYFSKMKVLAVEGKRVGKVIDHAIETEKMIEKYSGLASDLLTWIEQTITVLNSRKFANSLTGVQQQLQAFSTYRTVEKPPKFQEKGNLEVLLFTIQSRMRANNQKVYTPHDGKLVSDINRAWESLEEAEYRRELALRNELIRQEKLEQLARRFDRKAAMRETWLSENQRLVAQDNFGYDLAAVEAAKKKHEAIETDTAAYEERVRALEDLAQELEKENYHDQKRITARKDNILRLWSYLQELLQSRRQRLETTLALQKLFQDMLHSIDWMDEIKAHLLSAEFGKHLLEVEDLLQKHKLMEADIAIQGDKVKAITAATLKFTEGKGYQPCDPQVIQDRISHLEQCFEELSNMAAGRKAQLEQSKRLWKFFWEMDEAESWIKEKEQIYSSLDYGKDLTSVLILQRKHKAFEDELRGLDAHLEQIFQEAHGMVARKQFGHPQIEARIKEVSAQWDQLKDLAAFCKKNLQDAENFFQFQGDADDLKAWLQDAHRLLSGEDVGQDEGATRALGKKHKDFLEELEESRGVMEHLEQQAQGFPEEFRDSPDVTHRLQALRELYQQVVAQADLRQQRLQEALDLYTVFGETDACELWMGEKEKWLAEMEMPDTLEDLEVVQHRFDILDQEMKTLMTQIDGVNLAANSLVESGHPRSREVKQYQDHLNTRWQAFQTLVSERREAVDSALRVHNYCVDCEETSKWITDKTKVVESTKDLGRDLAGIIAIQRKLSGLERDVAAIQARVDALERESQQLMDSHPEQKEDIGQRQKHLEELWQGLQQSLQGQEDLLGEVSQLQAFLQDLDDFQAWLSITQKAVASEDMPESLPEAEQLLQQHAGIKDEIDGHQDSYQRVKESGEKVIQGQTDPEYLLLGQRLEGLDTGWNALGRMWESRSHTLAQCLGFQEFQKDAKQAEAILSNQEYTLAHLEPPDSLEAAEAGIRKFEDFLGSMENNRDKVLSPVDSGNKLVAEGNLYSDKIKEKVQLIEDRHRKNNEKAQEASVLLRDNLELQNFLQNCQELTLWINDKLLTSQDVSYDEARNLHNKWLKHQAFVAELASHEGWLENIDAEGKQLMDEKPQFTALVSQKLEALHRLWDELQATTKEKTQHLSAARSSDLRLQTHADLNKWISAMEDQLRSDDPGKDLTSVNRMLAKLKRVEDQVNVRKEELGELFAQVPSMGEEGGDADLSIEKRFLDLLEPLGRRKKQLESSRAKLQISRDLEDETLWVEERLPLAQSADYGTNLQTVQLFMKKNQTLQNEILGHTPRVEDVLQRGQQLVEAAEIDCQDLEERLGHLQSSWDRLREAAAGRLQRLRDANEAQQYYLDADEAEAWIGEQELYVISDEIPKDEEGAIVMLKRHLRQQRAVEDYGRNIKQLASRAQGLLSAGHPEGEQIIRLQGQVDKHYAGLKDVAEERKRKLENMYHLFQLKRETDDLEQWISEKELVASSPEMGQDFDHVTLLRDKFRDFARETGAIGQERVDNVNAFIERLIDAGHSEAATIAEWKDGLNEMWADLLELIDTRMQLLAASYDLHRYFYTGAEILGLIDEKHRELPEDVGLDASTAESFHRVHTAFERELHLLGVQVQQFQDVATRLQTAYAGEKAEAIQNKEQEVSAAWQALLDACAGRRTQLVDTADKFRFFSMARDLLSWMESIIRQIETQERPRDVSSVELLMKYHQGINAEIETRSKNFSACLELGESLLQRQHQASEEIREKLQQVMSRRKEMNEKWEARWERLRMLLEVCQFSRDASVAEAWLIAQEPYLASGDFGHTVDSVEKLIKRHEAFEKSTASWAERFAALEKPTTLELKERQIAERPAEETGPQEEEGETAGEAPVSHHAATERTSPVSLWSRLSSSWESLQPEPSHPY

percent of solubilized Na+,K+-ATPase comigrating with ankyrin and fodrin [1] [%] | percent of solubilized Na+,K+-ATPase comigrating with ankyrin and fodrin [2] [%] | binding result [3] | Molecule
> 80 | > 80 |  | Na+,K+-ATPase solubilized from MDCK cells (alpha- and beta-subunits) (from UniProt P50997 1-1021; P06583 1-303) (complex)
 |  | binds | B1
